# Publication PMC8780509
# Target: Recombinant human GCK (residues 16-465) fused to a N-terminal hexahistidine tag (human) (UniProt P35557)
# Chain of UniProt P35557 (P35557 16-465): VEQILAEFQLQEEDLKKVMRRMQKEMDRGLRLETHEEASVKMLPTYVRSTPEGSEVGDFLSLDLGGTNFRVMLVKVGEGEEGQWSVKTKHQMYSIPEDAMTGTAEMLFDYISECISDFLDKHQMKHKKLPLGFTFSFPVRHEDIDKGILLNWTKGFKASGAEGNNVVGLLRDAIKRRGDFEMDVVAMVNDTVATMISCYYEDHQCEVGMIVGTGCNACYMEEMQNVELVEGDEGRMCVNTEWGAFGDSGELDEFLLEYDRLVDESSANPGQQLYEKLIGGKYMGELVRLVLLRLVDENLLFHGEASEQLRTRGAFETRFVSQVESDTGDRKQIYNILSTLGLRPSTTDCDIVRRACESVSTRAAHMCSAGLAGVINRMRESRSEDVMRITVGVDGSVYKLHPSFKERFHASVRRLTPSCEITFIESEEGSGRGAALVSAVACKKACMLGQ
substance,measurement,value
Purified NS5A-D2 protein (amino acids 250 to 342) (domain or fragment),"maximum velocity (Vmax) of purified GCK, increase in the presence of NS5A-D2",31%
